In paper doi:10.1101/725622 (bioRxiv, 2019):

Biological target: V2R-bound βarr1 in HEK-293 cells (V2R: Homo sapiens; βarr1: Rattus …, UniProt P30518;P29066)
Assay: co-IP

B1: Ib30 (HA-tagged intrabody version of Fab30) (scFv, V domains shown)
VH: EVQLVESGGGLVQPGGSLRLSCAASGFNVYSSSIHWVRQAPGKGLEWVASISSYYGYTYYADSVKGRFTISADTSKNTAYLQMNSLRAEDTAVYYCARSRQFWYSGLDYWGQGTLVTVSS
VL: DIQMTQSPSSLSASVGDRVTITCRASQSVSSAVAWYQQKPGKAPKLLIYSASSLYSGVPSRFSGSRSGTDFTLTISSLQPEDFATYYCQQYKYVPVTFGQGTKVEIK
B1: binds.
